Results as given in patent US20250340623A1 (AC IMMUNE, published 2025).
Substitutions are numbered along the chain they refer to. Where no end group is shown, it is not given here. The star is where a group is joined. Biotin = O=C1N[C@H]2[C@H](CS[C@H]2CCCCC(=O)*)N1; Ahx = NCCCCCC(=O)O

T1: 64-78aa
T1 construct: also called alpha-synuclein peptide 64-78
T1 peptide: {Biotin-Ahx}-TNVGGAVVTGVTAVA

T2: 46-60aa
T2 construct: also called alpha-synuclein peptide 46-60
T2 peptide: {Biotin-Ahx}-EGVVHGVATVAEKTK

T3: 127-140aa
T3 peptide: {Biotin-Ahx}-MPSEEGYQDYEPEA

T4: 118-132aa
T4 peptide: {Biotin-Ahx}-VDPDNEAYEMPSEEG

T5: 82-96aa
T5 construct: also called alpha-synuclein peptide 82-96
T5 peptide: {Biotin-Ahx}-VEGAGSIAAATGFVK

T6: 1-15aa
T6 construct: also called alpha-synuclein peptide 1-15
T6 peptide: {Biotin-Ahx}-MDVFMKGLSKAKEGV

T7: 1-14aa
T7 construct: also called alpha-synuclein peptide 1-14
T7 peptide: MDVFMKGLSKAKEG-biotin

T8: 91-105aa
T8 peptide: {Biotin-Ahx}-ATGFVKKDQLGKNEE

T9: 10-24aa
T9 construct: also called alpha-synuclein peptide 10-24
T9 peptide: {Biotin-Ahx}-KAKEGVVAAAEKTKQ

B1: ACI-4F3_4317A4 (bispecific antibody, V domains shown)
VH 1: EVQLQQSGPELVKPGASVKISCKASGYTFTDYYMNWVKQSHGKSLEWIGDINPNTGTNSYNQKFKGRASLTVDKFSSAAYMELRSLTSEDSAVYYCARTGYGDPISSYYYALDYWGQGTSVTVSS
VL 1: DIVMSQSPSSLAVSAGEKVTMSCKSSQSLLNSRTRKNYLAWYQQKPGQSPKLLIYWASTRESGVPDRFTGSGSGTDFTLTISSVQAEDLAVYYCKQSYNLWTFGGGTKLEIK
VH 2: EVQLQQSGAELVRPGASVKLSCTASGFNIKDDYMHWVKQRPEQGLEWIGWIDPENGDTEYASKFQGKATMTADTSSNTAYLQLSSLTSEDTAVYYCKTWGTTQALFPYWGQGTLVTVSA
VL 2: DIVMTQSQKFMYTSVGDRVSITCKASQNVGNAVGWYQQKAGQSPKLLIHSASNRYTGVPDRFTGTGSGTDFTLTINNMQSEDLADYFCQQYRSYPLTFGAGTKLELK
notes: biparatopic; Arm A ACI-8033-4F3-Ab1, Arm B ACI-7088-4317A4-Ab1; engineered constant domains not specified
B2: Fab ACI-7067-1101C8-Ab2 (Fab, V domains shown)
VH: EVQLVESGGGLVQPKGSLKLSCAASGFSFNIYAMNWVRQAPGKGLEWVARIRSKSNNYATYYADSVKDRFTISRADSESMLYLQMNNLKTEDTAMYYCVRVGLRFYAMDYWGQGTSVTVSS
VL: DVLMTQTPLSLPVSLGDQASISCRSSQSIVHSNGNTYLEWYLQKPGQSPKLLIYKVSNRFSGVPDRFSGSGSGTDFTLKISRVEAEDLGVYYCFQGSQGPLTFGAGTKLELK
B3: ACI-2503C6_1101C8 (bispecific antibody, V domains shown)
VH 1: DVQLQESGPGLVKPSQSLSLTCSVTGYSITSGYYWNWIRLFPGNKLEWLGYINYDGSNNFNPSLKNRISITRDTSKNQFFLKLNSVTSEDTATYFCLRGDWDWGQGTLVTVSA
VL 1: not shown
VH 2: B2 VH
VL 2: B2 VL
notes: biparatopic; Arm A ACI-7079-2503C6-Ab1, Arm B ACI-7067-1101C8-Ab2; engineered constant domains not specified
B4: ACI-7067-1102G3-Ab1 (antibody, V domains shown)
VH: EVKLEESGGGLVQPGGSMKLSCAASGFTFSDAWMNWVRQSPEKGLEWVAEIRNKAHNHATYYAESVKGRFTISGDDSKSSVYLQMNNLRAEDTGIYYCTIYSYWGQGTLVTVSA
VL: SIVMTQTPKFLLVSAGDRVTITCKASQSVTKDVAWYQQKPGQSPKLLIYSTSNRYSGVPDRFTGSGYGTDFTFTINTVQTEDLAVYFCQQDYRIPYTFGGGTKLEIK
notes: mouse hybridoma mAb; VH/VL only; also called 1102G3F2
B5: Fab ACI-7067-1108H1-Ab1 (Fab, V domains shown)
VH: B4 VH with E5V, A23T, Y61N, Y103F
VL: B4 VL with K31N, D32Y, Q37H, T51A
B6: ACI-7067-1112H8-Ab2 (antibody, V domains shown)
VH: B4 VH with S30T, V48I, H58Y, T71D, A90V, Q106P
VL: SIVMTQTPKFLLMSPGDRVTMTCTASQSVSNYVAWYQQKPGQSPKLLIYSASNRFTGVPDRFTGSGYGTDFTFTINTVQTEDMAVYFCQQDYTSPYTFGGGTKLEIK
notes: mouse hybridoma mAb; VH/VL only; also called 1112H8C12
B7: ACI-7067-1108H1-Ab1 (antibody, V domains shown)
VH: B4 VH with E5V, A23T, Y61N, Y103F
VL: B4 VL with K31N, D32Y, Q37H, T51A
notes: mouse hybridoma mAb; VH/VL only; also called 1108H1E1
B8: Fab ACI-7067-1113D10-Ab1 (Fab, V domains shown)
VH: EVQLVESGGGLVQPKGSLKLSCAASGFTFNTYALHWVRQAPGKGLEWVARIRSKSSNYATYYADSVKDRFTISRDDSQSMLYLQMNNLKTEDTGMYYCVRGGVSPFDYWGQGTTLTVSS
VL: QIVLTQSPAIMSASPGEKVTMTCSASSSVSYMHWYQQKSGTSPKRWIYDTSKLASGVPARFSGSGSGTSYSLTISSMEAEDSATYYCQQWSNNPPTFGGGTKLEIK
B9: ACI-1113D10_4317A4 (bispecific antibody, V domains shown)
VH 1: B8 VH
VL 1: B8 VL
VH 2: B1 VH 2
VL 2: B1 VL 2
notes: biparatopic; Arm A ACI-7067-1113D10-Ab1, Arm B ACI-7088-4317A4-Ab1; engineered constant domains not specified
B10: ACI-5A12_3108C10 (bispecific antibody, V domains shown)
VH 1: QVHLKQSGADLVRPGASVKLSCKASGYTFTDYYINWVKQRPGQGLEWIARIYPGSGNTYYNEKFKGRATLSAEKSSTTAYMQLSSLTSEDSAVYFCVVGYYGAWGQGTTLTVSS
VL 1: DVVMTQTPLSLPVSLGDQASISCRSSQSLVHSNGKTHLHWYLQKPGQSPKLLIYKVSNRFSGVPDRFSGSGSGTDFTLKISRVEAEDLGVYFCSQSTHVPWTFGGGTKLEIK
VH 2: ELQLVESGGGLVRPGGSLKLSCATSGFTFRNYAMSWVRQTPAKRLEWVATISDGGTYTFYSDNVKGRFTISRDNVKNTLYLQMSHLKSEDTAMYYCSRAGSGHWGQGTTLTVSS
VL 2: not shown
notes: biparatopic; Arm A ACI-8033-5A12-Ab1, Arm B ACI-7079-3108C10-Ab2; engineered constant domains not specified
B11: ACI-7079-2511B3-Ab3 (antibody, V domains shown)
VH: B3 VH 1 with Y27F, G32Y, L40Q, L49M, G50A, N53S, F60Y, S88T, F95Y, L97T
VL: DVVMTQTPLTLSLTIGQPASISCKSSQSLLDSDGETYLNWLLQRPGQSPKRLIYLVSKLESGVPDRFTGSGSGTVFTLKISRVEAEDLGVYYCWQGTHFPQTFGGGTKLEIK
notes: mouse hybridoma mAb; VH/VL only; also called 2511B3B12

Columns and labels:
[1] = target: T10, alpha-synuclein fibrils (UniProt P37840 1-140); test: SPR, captured bAb; head says nM, kd/ka gives M
[2] = target: T11, monomeric alpha-synuclein (UniProt P37840 1-140); test: SPR, captured bAb; head says nM, kd/ka gives M
[3] = target: T10, alpha-synuclein fibrils; test: SPR, captured bAb
[4] = target: T11, monomeric alpha-synuclein; test: SPR, captured bAb
[5] = target: T10, alpha-synuclein fibrils; test: SPR, captured bAb; remark: listed apart in the source
Experimental: Binding affinity of alpha-synuclein biparatopic antibodies to monomeric or fibrillar alpha-synuclein species was performed using a single-cycle kinetics method. The instrument was primed with 1×HBS-P+ buffer (10× stock from GE Healthcare, BR-1003-52 diluted in Milli-Q water). Injections of monomeric alpha-synuclein (Boston Biochem, SP-485), increasing in concentration from 0.62-50 nM prepared from serial 2-fold dilutions, were performed with contact times of 300 sec/injection at a flow rate of 30 μL/min. A dissociation phase of 900 sec followed the final 50 nM injection. Regeneration of the sensor to the goat anti-human antibody layer was achieved using 3 regenerations of 10 mM Glycine pH 1.7. […] Regeneration of the sensor to the goat anti-mouse antibody layer was achieved using 3 regenerations of 10 mM Glycine pH 1.7. Results obtained from single-cycle kinetics were evaluated by Biacore 8K evaluation software with 1:1 binding homogenous Langmuir model with a preceeding buffer injection as a blank subtraction. The following kinetic parameters were obtained: on-rate (ka), off-rate (kd), affinity constant (KD, ratio of kd by ka), maximum response (Rmax), and goodness of fit (Chi2).

[6] = target: T12, alpha-synuclein seeds (UniProt P37840 1-140); test: cell-based or functional assay
[7] = target: T1, 64-78aa; test: indirect ELISA on biotinylated 15-mer peptide, supernatant 1/100
Experimental: (§1) Serum-free supernatants were harvested from stable hybridomas. The supernatants containing antibodies of interest were then screened by an indirect ELISA assay to determine epitopes. Epitopes were first determined using a library of 15-mer peptides covering the entire sequence of human alpha-synuclein protein, spanning amino acids (aa) 1-140 with 9aa offset and […] overlap. […] Briefly, streptavidin-coated ELISA plates were blocked overnight at 4° C. […] Plates were washed with PBS/0.05% Tween®20 and then incubated with the hybridoma supernatants at 1/100 dilution for 1 hour at 25° C.

[8] = target: T2, 46-60aa; test: indirect ELISA on biotinylated 15-mer peptide
Experimental: as §1

[9] = target: T3, 127-140aa; test: indirect ELISA on biotinylated 15-mer peptide
Experimental: as §1

[10] = target: T4, 118-132aa; test: indirect ELISA on biotinylated 15-mer peptide
Experimental: as §1

[11] = target: T5, 82-96aa; test: indirect ELISA on biotinylated 15-mer peptide
Experimental: as §1

[12] = target: T12, alpha-synuclein seeds; test: cell-based or functional assay; remark: listed apart in the source
[13] = target: T12, alpha-synuclein seeds; test: cell-based or functional assay; remark: listed apart in the source
[14] = target: T5, 82-96aa; test: indirect ELISA on biotinylated 15-mer peptide, supernatant 1/100
Experimental: as §1

[15] = target: T6, 1-15aa; test: indirect ELISA on biotinylated 15-mer peptide
Experimental: as §1

[16] = target: T7, 1-14aa; test: indirect ELISA on biotinylated 15-mer peptide
Experimental: as §1

[17] = target: T8, 91-105aa; test: indirect ELISA on biotinylated 15-mer peptide
Experimental: as §1

[18] = target: T9, 10-24aa; test: indirect ELISA on biotinylated 15-mer peptide
Experimental: as §1

Binder	Kd [1] [nM]	Kd [2] [nM]	koff [3] [s⁻¹]	kon [3] [M⁻¹ s⁻¹]	koff [4] [s⁻¹]	kon [4] [M⁻¹ s⁻¹]	fold slower dissociation rate (Kd) from fibrillar than from monomeric alpha-synuclein [5] [fold]	binding result [8]	binding result [9]	binding result [10]	other results
B1	0.00152	1.17	7.84e-08	51700	0.00103	884000	≥ 100	–	–	–	–
B2	–	–	–	–	–	–	–	–	–	–	aggregation half-time (τ1/2) of seeded alpha-synuclein aggregation, ThT; no antibody 18.0 hours [6]: 26.3 h
B3	0.00248	1.14	1.53e-07	61600	0.00025	220000	≥ 100	–	–	–	–
B4	–	–	–	–	–	–	–	no binding (tested: supernatant 1/100)	no binding (tested: supernatant 1/100)	no binding (tested: supernatant 1/100)	binding result [7]: binds; binding result [11]: no binding (tested: supernatant 1/100)
B5	–	–	–	–	–	–	–	–	–	–	aggregation half-time (τ1/2) of seeded alpha-synuclein aggregation, ThT; no antibody 18.0 hours [6]: 19.4 h
B6	–	–	–	–	–	–	–	no binding (tested: supernatant 1/100)	no binding (tested: supernatant 1/100)	no binding (tested: supernatant 1/100)	binding result [7]: binds; binding result [11]: no binding (tested: supernatant 1/100)
B7	–	–	–	–	–	–	–	no binding (tested: supernatant 1/100)	no binding (tested: supernatant 1/100)	no binding (tested: supernatant 1/100)	binding result [7]: binds; aggregation half-time (τ1/2) of seeded alpha-synuclein aggregation, ThT; no antibody 26.9 hours [12]: 28 h; binding result [11]: no binding (tested: supernatant 1/100)
B8	–	–	–	–	–	–	–	–	–	–	aggregation half-time (τ1/2) of seeded alpha-synuclein aggregation, ThT; no antibody 18.0 hours [6]: 21 h
B9	0.00614	0.416	3.48e-07	56800	0.000514	1.23e+06	≥ 100	–	–	–	–
B10	8.21	34.5	9.19e-05	11200	> 1	> 2.9e+07	≥ 100	–	–	–	IC50, percentage of de novo alpha-synuclein aggregates formed in cells after immunodepletion of seeds [13]: 22.7 nM
B11	–	–	–	–	–	–	–	no binding (tested: supernatant 1/100)	no binding (tested: supernatant 1/100)	no binding (tested: supernatant 1/100)	binding result [14]: binds; binding result [15]: no binding (tested: supernatant 1/100); binding result [16]: no binding (tested: supernatant 1/100); binding result [17]: no binding (tested: supernatant 1/100); binding result [18]: no binding (tested: supernatant 1/100)
